This assay deals with NEK7-mut (NEK7 with deletion of the binding sites) (UniProt Q8TDX7). Put plainly: SPR; Biacore T200; NEK7 or NEK7-mut immobilised by amine coupling; SDHB flowed at different concentrations; 1:1 Langmuir binding model.

Our source for the Kd values is publication PMC12663309.

NEK7-mut (NEK7 with deletion of the binding sites), sequence (Q8TDX7 whole entry, stated change not applied): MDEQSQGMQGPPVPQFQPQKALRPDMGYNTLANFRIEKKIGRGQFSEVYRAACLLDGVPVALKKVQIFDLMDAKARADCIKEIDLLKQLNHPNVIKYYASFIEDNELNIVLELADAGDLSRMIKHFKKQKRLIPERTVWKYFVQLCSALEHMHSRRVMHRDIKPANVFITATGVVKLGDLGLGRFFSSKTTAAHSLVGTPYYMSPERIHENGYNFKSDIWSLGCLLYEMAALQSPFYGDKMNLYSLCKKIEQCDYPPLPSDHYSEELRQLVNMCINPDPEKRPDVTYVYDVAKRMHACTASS

B1: human SDHB recombinant protein (Ag29868, Proteintech) (natural protein)
chain: AQTAAATAPRIKKFAIYRWDPDKAGDKPHMQTYEVDLNKCGPMVLDALIKIKNEVDSTLTFRRSCREGICGSCAMNINGGNTLACTRRIDTNLNKVSKIYPLPHMYVIKDLVPDLSNFYAQYKSIEPYLKKKDESQEGKQQYLQSIEEREKLDGLYECILCACCSTSCPSYWWNGDKYLGPAVLMQAYRWMIDSRDDFTEERLAKLQDPFSLYRCHTIMNCTRTCPKGLNPGKAIAEIKKMMATYKEKKASV
On to B1, for which the Kd stood at 4.75 µM. This counts as single-digit micromolar.
